How the values were obtained:
Type in all cases: cell-based
[1] = tested on: Wnt induced calcium release; test: Wnt induced [Ca2+]i release after preincubation with thapsigargin or membrane potential regulating compounds; details: preincubation 5 min; Wnt 9B 0.1 μg/ml as example; CsCl 5 mM; CdCl2 1 mM; TEA 10 mM; Amiodarone 75 μM; Tolbutamide 1 mM; Isradipine 100 μM; Nifedipine 1 mM; Minoxidil 25 μM; Atenolol 37.5 μM; Propanolol 50 μM; Furosemide 150 μM
Description: The imaging protocol was developed in the inventor's laboratory and has been described in detail, elsewhere (Wang at al., (2010) PLoS ONE 5, e10456). Briefly, 100000-200000 PC3, MCF7, 253J or Cos 7 cells were plated on 35 mm FluoroDish (WPI) and grown for 48 h; calcium indicators Fluo-4 (Invitrogen) and FuraRed (Invitrogen) at 1 ng/ml were added to FluoroDish containing only 1 ml of culture medium and incubated for 15-20 min at 37° C. The culture medium was removed and washed (×2) and replaced with 1 ml PBS. Live cell calcium Imaging was performed on an Olympus FluoView FV 1000 confocal microscope (Olympus KeyMed) equipped with a 20× dry objective (numerical aperture=0.75). Calcium indicators were excited with an argon laser line (488 nm) and emissions recorded in the green channel (500-560 nm) for Fluo-4 and red channel (600-700 nm) for FuraRed after addition of vehicle control (PBS) or Wnt X (30-600 ng/ml). Images were acquired every 1.1 or 2.2 seconds for up to 600-800s; image and data acquisition was performed using FluoView 1000 software (Olympus, UK). Fluorescent intensity was measured and data exported as a tab delimited file for further analysis using a spreadsheet. All imaging experiments were performed in duplicate; intracellular calcium at 100 ng/ml was measured in at least 3-12 different passages (passage numbers 25 to 37) of cell line for each Wnt ligand. Wnt 11 was tested in at least 5 different passages at 3 different concentrations. […]
To measure the effect of changes in membrane potential on [Ca^2+]i release using the protocol described above, in some experiments, external solution (PBS) was substituted with varying concentrations of KCl. In other experiments chemical inhibitors of K^+ channels such as TEA, CsCl or tolbutamide (Sigma-Aldrich) were added to the cells grown on FluoroDish, at 37° C., at least 5 min prior to addition of Wnt ligands.
(§1) After image acquisition, regions of interest (ROI) were drawn over individual PC3 cells (up to 25) in a single frame and calcium intensity measurements were made using FluoView 1000 software (Olympus, UK). The measurements were exported as a tab delimited file into a spreadsheet for further analysis and Fluo4/Fura Red ratios were calculated. The waveform, a product of the ratio of Fluo4 and FuraRed over the period of measurement was used to measure the kinetics of the activation of [Ca^2+]i release in PC3 cells, in response to different Wnt ligands. The time constants (rise, dwell and fall times) were calculated by first fitting the Fluo4/FuraRed ratio to a single Gaussian function (Origin Lab Corp., MA); a lower (10%) and upper (90%) amplitude thresholding method was then used to calculate the time constants (s). Statistical significance was calculated using Mann Whitney U test.

[2] = tested on: β-catenin translocation to the nucleus; test: β-catenin immunocytochemistry and nuclear co-localization analysis, PC3; details: PC3 cells; for Pearson coefficient of nuclear co-localization of β-catenin: Wnt 100 ng/ml vs control, p<0.001 Mann Whitney test
Description: Immunostaining was performed in two different laboratories, independently with the experimenter blind to the identity of the treatment. Either cells used in FluoroDish, post [Ca^2+]i experiments using dyes (see above) or grown in 8 well chamber glass slides (Lab Tek II, Nunc) were used. For Wnt ligand treatment, the culture medium replaced with PBS (without calcium) at 37° C. The experiments were replicated for Wnt ligand or vehicle control as described for [Ca^2+]i measurements. Briefly, Wnt ligands were added and chamber slides incubated at 37° C. for up to 20 min. Chamber wells were washed 3× with 0.5 ml PBS and cells were fixed with 0.5 ml 4% formalin for 30 min at 4° C. Cells were washed 3× with ice cold PBS and stored in 0.5 ml PBS at 4° C. for immunostaining. In some experiments PC3 cells were treated with thaspsigargin as described above.
For immunostaining cells were washed twice for 5 minutes in TBST (20 mM Tris pH 7.4, 0.9% NaCl, 0.1% Tween 20, Sigma). Cells were then incubated in 20% normal goat serum (NGS)/TBST for 30 min at room temperature, the chambers were drained and cells were incubated with mouse anti-β-catenin (ab22656, Abcam, UK) at 1:500 dilution in NGS/TBST overnight at 4° C. Following two further 5 min washes in TBST sections were incubated in goat anti-mouse peroxidase fab (Abcam, UK) at 1:500 dilution for 30 min at room temperature. Following a further two 5 min washes in TBST cells were incubated with tyramide Cy3 (Perkin Elmer) for 10 min at room temperature. Sections were washed twice for 5 min in TBST before nuclear counterstaining with DAPI. After a final two 5 min washes, the chambers were removed and cover slip placed on slides using Permafluor (Thermo Shandon).
Fluorescence immunocytochemical staining for β-catenin expression in cell lines was imaged using Olympus Fluoview 1000 Confocal Microscope (Olympus KeyMed) mounted on an Olympus IX81 inverted microscope using a 20×0.7 NA or 40×1.0 NA dry objective with a zoom of ×3.4′,6-diamidino-2-phenylindole (DAPI, nuclear counterstain) was excited at 405 nm with an emission of 415-500 nm; Cy3 (β-catenin label) signal was excited at 561 nm with an emission spectrum between 570-670 nm. […] Z-stacks of at least 3 fields per sample were imaged and saved in Olympus FV (OIF or OIB) file format.
Nuclear co-localization of β-catenin was calculated by importing FV files for untreated, control or treated cells, into colocalization plugin of Fiji software (http://fiji.sc/Fiji) for Cy3 (β-catenin) and DAPI (nuclear) signals. Pearson co-relation of colocalization were tabulated for 25-90 cells (from 2-5 different passages of cells) using ROI analysis. Statistical significance between untreated and treated cells was calculated using Mann Whitney U test.

[3] = tested on: PC3 prostate cancer cell line; test: Live [Ca2+]i imaging (Fluo4/FuraRed ratio) after addition of Wnt ligand; details: PC3 cells; for intracellular calcium mobilization ([Ca2+]i release) in response to Wnt ligand: 100 ng/ml Wnt ligand peptide, ratio of Fluo4/Fura Red; for dependence of time constants (dwell time) on Wnt ligand concentration / co-operativity: three concentrations of each Wnt ligand, first-order fit; for rise and fall time of [Ca2+]i release: Wnt peptide 100 ng/ml
Description: The imaging protocol was developed in the inventor's laboratory and has been described in detail, elsewhere (Wang at al., (2010) PLoS ONE 5, e10456). Briefly, 100000-200000 PC3, MCF7, 253J or Cos 7 cells were plated on 35 mm FluoroDish (WPI) and grown for 48 h; calcium indicators Fluo-4 (Invitrogen) and FuraRed (Invitrogen) at 1 ng/ml were added to FluoroDish containing only 1 ml of culture medium and incubated for 15-20 min at 37° C. The culture medium was removed and washed (×2) and replaced with 1 ml PBS. Live cell calcium Imaging was performed on an Olympus FluoView FV 1000 confocal microscope (Olympus KeyMed) equipped with a 20× dry objective (numerical aperture=0.75). Calcium indicators were excited with an argon laser line (488 nm) and emissions recorded in the green channel (500-560 nm) for Fluo-4 and red channel (600-700 nm) for FuraRed after addition of vehicle control (PBS) or Wnt X (30-600 ng/ml). Images were acquired every 1.1 or 2.2 seconds for up to 600-800s; image and data acquisition was performed using FluoView 1000 software (Olympus, UK). Fluorescent intensity was measured and data exported as a tab delimited file for further analysis using a spreadsheet. All imaging experiments were performed in duplicate; intracellular calcium at 100 ng/ml was measured in at least 3-12 different passages (passage numbers 25 to 37) of cell line for each Wnt ligand. Wnt 11 was tested in at least 5 different passages at 3 different concentrations. To test if the Wnt activated calcium release was from [Ca^2+]i stores, in some cases PC3 cells, loaded with calcium dyes, were incubated with 1-5 μM of thapsigargin (Sigma, UK), resuspended in dimethyl sulfoxide (DMSO), for 20 min at 37° C., prior to addition of Wnt ligand and live calcium imaging (as described above).
The experiments were performed using 35 mm, glass bottom, FluoroDish containing 1 ml PBS, at 37° C., to which ligands were added at desired concentration. In a static, non-superfusing assay system there is a lag time before the start of a response, in this case an increase in the intensity of the Fluo4 signal due to the release of free calcium. To measure the diffusion constant under these conditions we used Pontamine Sky Blue (Sigma Aldridge), which fluoresces in the red spectrum with 488 nm excitation, using standard practice for adding ligands; the diffusion constant was measured to be 23.3±2.1 μm·s^−1 (means±S.E.M, n=8). The calcium wave, in response to Wnt ligands, travelled across the FluoroDish.
as §1

Molecule	Wnt ligand induced calcium release after preincubation with MPRC (FIG. 16) [1]	intracellular calcium mobilization ([Ca2+]i release) in response to Wnt ligand [3]	dependence of time constants (dwell time) on Wnt ligand concentration / co-operativity [3]	also measured
CCCCc1oc2ccccc2c1C(=O)c1cc(I)c(OCCN(CC)CC)c(I)c1 [Amiodarone]	inhibited			
CC(C)NCC(O)COc1ccc(CC(N)=O)cc1 (stereo not shown) [Atenolol]	inhibited			
[Cl][Cd][Cl] [CdCl2]	inhibited			
COC(=O)C1=C(C)NC(C)=C(C(=O)OC(C)C)C1c1cccc2nonc12 (stereo not shown) [Isradipine]	inhibited			
C[C@@H]1O[C@@H](O[C@H]2C[C@@H](O)[C@]3(CO)[C@H]4[C@H](O)C[C@]5(C)[C@@H](C6=CC(=O)OC6)CC[C@]5(O)[C@@H]4CC[C@]3(O)C2)[C@H](O)[C@H](O)[C@H]1O [Ouabain, reference compound]				β-catenin translocation to the nucleus after pretreatment with Ouabain (FIG. 21) ([2]; Wnt5A treated): increases
Wnt7A: Recombinant Wnt peptide purchased from R&D systems (protein, UniProt O00755 32-349, looked up) Protein Wnt-7a: LGASIICNKIPGLAPRQRAICQSRPDAIIVIGEGSQMGLDECQFQFRNGRWNCSALGERTVFGKELKVGSREAAFTYAIIAAGVAHAITAACTQGNLSDCGCDKEKQGQYHRDEGWKWGGCSADIRYGIGFAKVFVDAREIKQNARTLMNLHNNEAGRKILEENMKLECKCHGVSGSCTTKTCWTTLPQFRELGYVLKDKYNEAVHVEPVRASRNKRPTFLKIKKPLSYRKPMDTDLVYIEKSPNYCEEDPVTGSVGTQGRACNKTAPQASGCDLMCCGRGYNTHQYARVWQCNCKFHWCCYVKCNTCSERTEMYTCK		induce intracellular calcium mobilization	no difference	
Wnt11: Recombinant Wnt peptide purchased from R&D systems (protein, UniProt O96014 25-354, looked up) Protein Wnt-11: IKWLALSKTPSALALNQTQHCKQLEGLVSAQVQLCRSNLELMHTVVHAAREVMKACRRAFADMRWNCSSIELAPNYLLDLERGTRESAFVYALSAAAISHAIARACTSGDLPGCSCGPVPGEPPGPGNRWGGCADNLSYGLLMGAKFSDAPMKVKKTGSQANKLMRLHNSEVGRQALRASLEMKCKCHGVSGSCSIRTCWKGLQELQDVAADLKTRYLSATKVVHRPMGTRKHLVPKDLDIRPVKDSELVYLQSSPDFCMKNEKVGSHGTQDRQCNKTSNGSDSCDLMCCGRGYNPYTDRVVERCHCKYHWCCYVTCRRCERTVERYVCK		did not mobilize [Ca^2+]i		
Wnt4: Recombinant Wnt peptide purchased from R&D systems (protein, UniProt P56705 23-351, looked up) Protein Wnt-4: SNWLYLAKLSSVGSISEEETCEKLKGLIQRQVQMCKRNLEVMDSVRRGAQLAIEECQYQFRNRRWNCSTLDSLPVFGKVVTQGTREAAFVYAISSAGVAFAVTRACSSGELEKCGCDRTVHGVSPQGFQWSGCSDNIAYGVAFSQSFVDVRERSKGASSSRALMNLHNNEAGRKAILTHMRVECKCHGVSGSCEVKTCWRAVPPFRQVGHALKEKFDGATEVEPRRVGSSRALVPRNAQFKPHTDEDLVYLEPSPDFCEQDMRSGVLGTRGRTCNKTSKAIDGCELLCCGRGFHTAQVELAERCSCKFHWCCFVKCRQCQRLVELHTCR		induce intracellular calcium mobilization	negative co-operativity	rise and fall time of [Ca2+]i release [3]: slowest; Pearson coefficient of nuclear co-localization of β-catenin [2]: significant increase
Wnt3A: Recombinant Wnt peptide purchased from R&D systems (protein, UniProt P56704 19-352, looked up) Protein Wnt-3a: SYPIWWSLAVGPQYSSLGSQPILCASIPGLVPKQLRFCRNYVEIMPSVAEGIKIGIQECQHQFRGRRWNCTTVHDSLAIFGPVLDKATRESAFVHAIASAGVAFAVTRSCAEGTAAICGCSSRHQGSPGKGWKWGGCSEDIEFGGMVSREFADARENRPDARSAMNRHNNEAGRQAIASHMHLKCKCHGLSGSCEVKTCWWSQPDFRAIGDFLKDKYDSASEMVVEKHRESRGWVETLRPRYTYFKVPTERDLVYYEASPNFCEPNPETGSFGTRDRTCNVSSHGIDGCDLLCCGRGHNARAERRREKCRCVFHWCCYVSCQECTRVYDVHTCK		induce intracellular calcium mobilization	negative co-operativity	rise and fall time of [Ca2+]i release [3]: shortest; Pearson coefficient of nuclear co-localization of β-catenin [2]: significant increase

From patent US20160271157A1, “BETA-CATENIN” (UCL BUSINESS PLC, priority 2013, published 2016)
